Source: paper PMC3660137

Substrate: CCCCCC(O)/C=C/C=O
Test: LC/MS of GSHNE conjugate, initial rate
Type: biochemical, Oncorhynchus kisutch
Conditions: 1 mM GSH, 30 °C, 10–150 μM HNE

B1: OlfGST pi; OkGST pi; GST pi (Oncorhynchus kisutch) (protein)
chain: MGPYTITYFGVRGRCGAMRIMMADQGQEWKEILMDFADWTKGDLKASCVFGQLPKFEDGGLVLYQSNAILRHLGRNHDAYGKDGKEAARIDMMCDGVEDLRLKYGKMIYQEYDTGKDQYIKDLPNHLDKFEAVMAKNKTGFLVGDKPSFADYSLFEVLLNHLVLCSSCLDTSPSLKSFVEKMSARPKIKAFLGSDAYKKLPINGNGKQ
Km: 160 ± 60 µM
Vmax: 0.5 µmol/min/mg
kcat: 0.37 ± 0.09 s⁻¹
kcat/Km: 2300 ± 1100 M⁻¹ s⁻¹
